For one molecule, Kd results are on record in PMC4919518.

What all share (test): fluorescence polarization; 5 mM Mg2+; FP: 20 mM HEPES-KOH pH 7.5, 200 mM NaCl, 5 mM MgCl2, 0.01 mg/ml E. coli total tRNA, 0.01% NP-40, 10 pM probe, 25 C; EMSA: 20 mM HEPES-KOH pH 7.5, 200 mM NaCl, 5
One data set deals with T1, RsAgo Y463A/K467A (Rhodobacter sphaeroides (ATCC 17025D-5), UniProt A4WYU7 1-777, Y463A;K467A).
T1 sequence: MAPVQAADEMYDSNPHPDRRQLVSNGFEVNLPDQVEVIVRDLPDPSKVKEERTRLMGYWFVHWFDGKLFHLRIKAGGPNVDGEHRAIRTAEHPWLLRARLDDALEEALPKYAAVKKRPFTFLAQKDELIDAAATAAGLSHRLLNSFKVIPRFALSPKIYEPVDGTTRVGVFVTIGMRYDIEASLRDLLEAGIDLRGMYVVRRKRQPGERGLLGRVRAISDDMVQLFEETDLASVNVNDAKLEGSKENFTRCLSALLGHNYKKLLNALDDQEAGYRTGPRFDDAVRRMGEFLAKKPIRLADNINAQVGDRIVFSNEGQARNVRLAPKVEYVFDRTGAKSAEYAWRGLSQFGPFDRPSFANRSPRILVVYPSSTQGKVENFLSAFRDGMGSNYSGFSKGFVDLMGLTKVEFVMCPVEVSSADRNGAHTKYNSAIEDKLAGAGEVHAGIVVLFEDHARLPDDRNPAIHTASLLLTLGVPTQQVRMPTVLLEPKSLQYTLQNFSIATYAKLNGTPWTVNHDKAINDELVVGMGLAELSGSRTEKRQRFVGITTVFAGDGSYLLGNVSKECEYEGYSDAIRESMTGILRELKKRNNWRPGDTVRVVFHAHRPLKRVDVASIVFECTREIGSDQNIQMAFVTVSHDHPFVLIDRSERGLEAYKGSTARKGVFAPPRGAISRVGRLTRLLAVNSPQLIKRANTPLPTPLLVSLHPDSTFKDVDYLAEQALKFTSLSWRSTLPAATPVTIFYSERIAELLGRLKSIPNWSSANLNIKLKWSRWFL

The target in the next data set is T2, RsAgo WT (Rhodobacter sphaeroides (ATCC 17025D-5), UniProt A4WYU7 1-777).
T2 sequence: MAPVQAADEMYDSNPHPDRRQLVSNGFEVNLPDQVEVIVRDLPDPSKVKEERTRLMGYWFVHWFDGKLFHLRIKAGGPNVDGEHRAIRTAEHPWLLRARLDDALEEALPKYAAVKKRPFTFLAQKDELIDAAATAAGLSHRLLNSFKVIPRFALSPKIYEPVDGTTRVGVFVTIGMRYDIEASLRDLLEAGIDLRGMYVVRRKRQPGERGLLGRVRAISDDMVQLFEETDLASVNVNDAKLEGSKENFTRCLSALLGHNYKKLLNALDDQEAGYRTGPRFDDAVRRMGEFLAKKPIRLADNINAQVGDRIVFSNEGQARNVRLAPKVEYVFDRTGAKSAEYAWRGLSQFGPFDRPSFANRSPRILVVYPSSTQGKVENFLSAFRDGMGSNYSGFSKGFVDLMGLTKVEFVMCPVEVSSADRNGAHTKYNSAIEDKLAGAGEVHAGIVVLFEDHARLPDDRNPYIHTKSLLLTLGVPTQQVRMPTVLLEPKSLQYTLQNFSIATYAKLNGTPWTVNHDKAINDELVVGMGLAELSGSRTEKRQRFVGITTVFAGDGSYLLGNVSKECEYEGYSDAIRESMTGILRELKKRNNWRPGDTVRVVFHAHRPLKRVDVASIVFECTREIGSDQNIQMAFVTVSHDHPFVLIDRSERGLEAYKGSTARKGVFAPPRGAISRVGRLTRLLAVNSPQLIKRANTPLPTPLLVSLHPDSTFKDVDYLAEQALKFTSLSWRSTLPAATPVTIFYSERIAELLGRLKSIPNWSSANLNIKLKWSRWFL

A further data set concerns the target T3, RsAgo K506A (Rhodobacter sphaeroides (ATCC 17025D-5), UniProt A4WYU7 1-777, K506A).
T3 sequence: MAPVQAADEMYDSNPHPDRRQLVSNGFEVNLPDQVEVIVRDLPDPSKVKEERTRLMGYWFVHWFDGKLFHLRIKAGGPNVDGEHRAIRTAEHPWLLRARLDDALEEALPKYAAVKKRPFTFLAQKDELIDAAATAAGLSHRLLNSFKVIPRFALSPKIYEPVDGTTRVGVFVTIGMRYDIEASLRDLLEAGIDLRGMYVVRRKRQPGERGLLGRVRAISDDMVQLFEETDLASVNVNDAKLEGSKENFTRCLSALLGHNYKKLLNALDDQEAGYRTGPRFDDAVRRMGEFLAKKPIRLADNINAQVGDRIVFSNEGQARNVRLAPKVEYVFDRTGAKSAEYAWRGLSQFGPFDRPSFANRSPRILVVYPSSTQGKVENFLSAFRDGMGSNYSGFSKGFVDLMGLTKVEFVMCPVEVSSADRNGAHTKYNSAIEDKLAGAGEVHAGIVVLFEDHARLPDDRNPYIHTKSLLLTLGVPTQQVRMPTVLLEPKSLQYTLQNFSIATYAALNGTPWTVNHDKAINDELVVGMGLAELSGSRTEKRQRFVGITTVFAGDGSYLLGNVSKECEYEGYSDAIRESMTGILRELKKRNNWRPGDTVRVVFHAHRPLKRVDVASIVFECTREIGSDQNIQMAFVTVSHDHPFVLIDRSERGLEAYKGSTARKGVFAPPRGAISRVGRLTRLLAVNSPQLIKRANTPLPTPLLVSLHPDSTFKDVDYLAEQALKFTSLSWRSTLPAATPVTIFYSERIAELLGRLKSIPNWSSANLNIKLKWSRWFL

B1: 5'P-RNA (5'U-RNA), FAM (ssRNA)
RNA: UUACAACCUACUACCUCG
modifications: 5'-phosphate
On to B1, for which the Kd with RsAgo Y463A/K467A worked out at 1700 ± 123 nM; with RsAgo WT it was 0.91 ± 0.06 nM; with RsAgo K506A, 1030 ± 47 nM.

For orientation: Kd means the equilibrium constant for the complex coming apart. Read a high Kd as weaker binding.
